Source: the supplement of paper PMC10567573

B1: DCAF4 (parent)
chain: DSHILLCLMGLAETPGCATLLPAS
B2: TCAP (parent)
chain: YQRVLPLPIFTPAKMGATKEERED

Variants of: B1
Experiment: protein stability index of a GFP-peptide fusion (GPS, HEK-293T) (PSI 1-6); higher = more stable
Conditions: c terminus: a fixed tail appended
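Further: lentivirally expressed fusions sorted by FACS into six bins by GFP to DsRed ratio, PSI derived from sequencing read proportions per bin multiplied by bin number.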

Protein stability index, by site and new letter:
D1: H 2.19; G 3.42; R 4.01; Y 1.7; T 2.58; V 3.42; L 3.08; C 3.49; I 2.64; E 2.55; M 2.4; W 3.42; S 3.75; A 2.99; K 2.07; Q 2.87
S2: P 2.04; E 2.48; H 1.36; A 3.22; L 2.63; K 2.03; M 2.31; R 2.46; Q 3.81; F 3.1; D 2.64; G 3.25; N 2.39; I 2.04; V 3.74; T 2.09

Variants of: B2
Experiment: as above
Conditions: c terminus: a fixed tail appended

Protein stability index of substitutions, site by site:
V4: K 1.8; A 1.71
Q2: P 1.55; M 2.54; A 1.92
P6: A 2.09; H 2.11; W 1.56; K 1.89; C 1.72
L5: C 1.86; Y 2.37; R 2.7; K 2.13; H 2.08; V 1.96; P 2.33
I9: A 3.96; D 3.63; N 4.47; G 3.79
A13: T 2.64; Q 1.95; N 1.67; H 1.69; V 2.2
R3: E 2.03; T 2.05; M 3.43; P 1.55; S 2.3; K 2.5; F 2.63; D 2.03
E21: D 2; I 2.2; S 1.91; F 1.95; G 1.75
Y1: W 2.93; N 5.03; M 4.64; H 4.68; G 4.97
R22: A 1.9; L 1.79; Y 1.63; S 1.76; E 2.34
L7: Y 2.71; I 2.19; V 2.4; C 1.42; E 2.61; G 2.46; M 2.43; A 1.75
P8: V 2; H 2.15; G 1.37; C 2.62
F10: A 4.3; R 4.18; S 4.06
E20: V 1.65; M 2.4; C 1.87; Y 2.67; F 1.72; L 2.13; W 2.2; S 2.11; H 2.78
A17: R 2.05; P 1.97; I 1.84; W 2.11; T 1.78; C 2.24; G 1.72; M 2.38
K19: V 1.63; H 1.8; N 2.1; E 2.09; P 2.21
G16: E 2.16; N 1.67; K 1.7; W 1.8; Q 2.24; P 1.96
T11: H 3.49; F 2.25; W 2.25; E 2.52; G 3.12; K 3.63
P12: D 2.92; E 3.02; C 2.16; A 3.44; V 3.07; H 3.12; L 2.64; Q 3.84; Y 2.74
E23: K 1.87; Q 1.69; H 2.72
M15: N 2.38; S 2.92; P 2.69; V 2.39; A 2.38; D 2.23
D24: Q 2.03; K 2.17; M 1.86; N 2.22
K14: W 1.59; R 2.21; P 2.62; V 2.78; G 2.65; T 1.99; A 1.64; S 2.46; I 1.61
T18: V 2.38; S 1.81; C 2.12; N 2.06; F 1.76; G 1.96
